Legend:
RnCOMT = molecular target: T1, RnCOMT (Rattus norvegicus, UniProt P22734); assay: conversion by HPLC; format: biochemical; settings: 4 mM SAM, 10 mM MgCl2, HEPES pH 7.5, 30 °C, 2 h
T1 construct: gene Comt; codon-optimised synthetic gene, E. coli BL21(DE3), Ni-NTA purified
T1 sequence (P22734 1-264): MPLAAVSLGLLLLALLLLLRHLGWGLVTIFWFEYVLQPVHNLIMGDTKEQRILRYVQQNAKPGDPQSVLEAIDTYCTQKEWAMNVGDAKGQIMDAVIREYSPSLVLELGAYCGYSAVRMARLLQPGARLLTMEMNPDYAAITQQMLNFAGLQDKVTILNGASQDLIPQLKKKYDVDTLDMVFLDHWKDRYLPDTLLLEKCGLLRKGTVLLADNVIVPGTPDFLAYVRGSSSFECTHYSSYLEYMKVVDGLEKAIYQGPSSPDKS

[1] = system: COc1cc(CC[C@@H]2NCCc3cc(O)c(O)cc32)cc(O)c1OC; assay: initial rates by HPLC, Michaelis-Menten fit; format: biochemical, Gloriosa superba; settings: SAM as methyl donor, 200 mM potassium phosphate pH 7.5, 30 °C
CNMT = molecular target: T2, CNMT (Coptis japonica, UniProt Q948P7); assay: product titer by HPLC, coupled to RnCOMT; format: biochemical; settings: SAM; (S)-1c formed in situ from 2 mM (S)-1b; HEPES pH 7.5, 30 °C, 4 h
T2 construct: codon-optimised synthetic gene, E. coli BL21(DE3), Ni-NTA purified

TfNCS = molecular target: T3, TfNCS (Thalictrum flavum, UniProt C3SBV6); assay: product by HPLC, coupled to TpCAR; format: biochemical; settings: 1a formed in situ from 1 by TpCAR; co-substrate dopamine; HEPES pH 7.5, 30 °C
T3 construct: codon-optimised synthetic gene, E. coli BL21(DE3), Ni-NTA purified

Compound | Km [1] [µM] | kcat [1] [s⁻¹] | other results
COc1cc(CC[C@@H]2NCCc3cc(O)c(O)cc32)cc(OC)c1OC [(S)-1b] | – | – | conversion by HPLC (RnCOMT): the enzymatic activity of RnCOMT towards (S)−1b was much better than that of GsOMT1
GsOMT1 (Gloriosa superba) | 630 ± 50 | 4.56 ± 0.24 | –
GsOMT1 (Gloriosa superba; V125Q) | 330 ± 20 | 8.65 ± 0.26 | –
COc1cc2c(cc1O)[C@H](CCc1cc(OC)c(OC)c(OC)c1)NCC2 [(S)-1c] | – | – | product titer by HPLC, coupled to RnCOMT (CNMT): CNMT showed a very weak catalytic activity towards (S)−1c
COc1cc(CCC=O)cc(OC)c1OC [1a] | – | – | product by HPLC, coupled to TpCAR (TfNCS): (S)−1b was efficiently synthesized without the accumulation of intermediate 1a
